Results published in IntAct's records for PubMed 22582013.

B1: Extracellular serine/threonine protein kinase FAM20C (Homo sapiens), Q8IXL6 (parent)
chain: MKMMLVRRFRVLILMVFLVACALHIALDLLPRLERRGARPSGEPGCSCAQPAAEVAAPGWAQVRGRPGEPPAASSAAGDAGWPNKHTLRILQDFSSDPSSNLSSHSLEKLPPAAEPAERALRGRDPGALRPHDPAHRPLLRDPGPRRSESPPGPGGDASLLARLFEHPLYRVAVPPLTEEDVLFNVNSDTRLSPKAAENPDWPHAGAEGAEFLSPGEAAVDSYPNWLKFHIGINRYELYSRHNPAIEALLHDLSSQRITSVAMKSGGTQLKLIMTFQNYGQALFKPMKQTREQETPPDFFYFSDYERHNAEIAAFHLDRILDFRRVPPVAGRMVNMTKEIRDVTRDKKLWRTFFISPANNICFYGECSYYCSTEHALCGKPDQIEGSLAAFLPDLSLAKRKTWRNPWRRSYHKRKKAEWEVDPDYCEEVKQTPPYDSSHRILDVMDMTIFDFLMGNMDRHHYETFEKFGNETFIIHLDNGRGFGKYSHDELSILVPLQQCCRIRKSTYLRLQLLAKEEYKLSLLMAESLRGDQVAPVLYQPHLEALDRRLRVVLKAVRDCVERNGLHSVVDDDLDTEHRAASAR

Variants of: B1
Conditions: with ostp_human SPP1, P10451
Chain of ostp_human SPP1, P10451 (P10451 whole entry): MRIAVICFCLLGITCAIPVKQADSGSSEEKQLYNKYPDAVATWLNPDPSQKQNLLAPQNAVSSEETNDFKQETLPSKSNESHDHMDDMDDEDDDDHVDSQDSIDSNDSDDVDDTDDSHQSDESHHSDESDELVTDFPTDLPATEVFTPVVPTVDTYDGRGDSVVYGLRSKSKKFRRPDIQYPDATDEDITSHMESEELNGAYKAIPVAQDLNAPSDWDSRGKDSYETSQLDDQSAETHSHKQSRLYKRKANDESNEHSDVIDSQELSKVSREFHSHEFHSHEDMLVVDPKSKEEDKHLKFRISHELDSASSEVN

Effect of a mutation on the interaction, with no effect:
MKMMLVRRFRVLILMVFLVACALHIALDLLPRLERRGARPSGEPGCSCAQPAAEVAAPGWAQVRGRPGEPPAASSAAGDAGWPNKHTLRILQDFSSDPSSNLSSHSLEKLPPAAEPAERALRGRDPGALRPHDPAHRPLLRDPGPRRSESPPGPGGDASLLARLFEHPLYRVAVPPLTEEDVLFNVNSDTRLSPKAAENPDWPHAGAEGAEFLSPGEAAVDSYPNWLKFHIGINRYELYSRHNPAIEALLHDLSSQRITSVAMKSGGTQLKLIMTFQNYGQALFKPMKQTREQETPPDFFYFSDYERHNAEIAAFHLDRILDFRRVPPVAGRMVNMTKEIRDVTRDKKLWRTFFISPANNICFYGECSYYCSTEHALCEKPDQIEGSLAAFLPDLSLAKRKTWRNPWRRSYHKRKKAEWEVDPDYCEEVKQTPPYDSSHRILDVMDMTIFDFLMGNMDRHHYETFEKFGNETFIIHLDNGRGFGKYSHDELSILVPLQQCCRIRKSTYLRLQLLAKEEYKLSLLMAESLRGDQVAPVLYQPHLEALDRRLRVVLKAVRDCVERNGLHSVVDDDLDTEHRAASAR [G379E]
MKMMLVRRFRVLILMVFLVACALHIALDLLPRLERRGARPSGEPGCSCAQPAAEVAAPGWAQVRGRPGEPPAASSAAGDAGWPNKHTLRILQDFSSDPSSNLSSHSLEKLPPAAEPAERALRGRDPGALRPHDPAHRPLLRDPGPRRSESPPGPGGDASLLARLFEHPLYRVAVPPLTEEDVLFNVNSDTRLSPKAAENPDWPHAGAEGAEFLSPGEAAVDSYPNWLKFHIGINRYELYSRHNPAIEALLHDLSSQRITSVAMKSGGTQLKLIMTFQNYGQALFKPMKQTREQETPPDFFYFSDYERHNAEIAAFHLDRILDFRRVPPVAGRMVNMTKEIRDVTRDKKLWRTFFISPANNICFYGECSYYCSTEHALCRKPDQIEGSLAAFLPDLSLAKRKTWRNPWRRSYHKRKKAEWEVDPDYCEEVKQTPPYDSSHRILDVMDMTIFDFLMGNMDRHHYETFEKFGNETFIIHLDNGRGFGKYSHDELSILVPLQQCCRIRKSTYLRLQLLAKEEYKLSLLMAESLRGDQVAPVLYQPHLEALDRRLRVVLKAVRDCVERNGLHSVVDDDLDTEHRAASAR [G379R]
MKMMLVRRFRVLILMVFLVACALHIALDLLPRLERRGARPSGEPGCSCAQPAAEVAAPGWAQVRGRPGEPPAASSAAGDAGWPNKHTLRILQDFSSDPSSNLSSHSLEKLPPAAEPAERALRGRDPGALRPHDPAHRPLLRDPGPRRSESPPGPGGDASLLARLFEHPLYRVAVPPLTEEDVLFNVNSDTRLSPKAAENPDWPHAGAEGAEFLSPGEAAVDSYPNWLKFHIGINRYELYSRHNPAIEALLHDLSSQRITSVAMKSGGTQLKLIMTFQNYGQALFKPMKQTREQETPPDFFYFSDYERHNAEIAAFHLDRILDFRRVPPVAGRMVNMTKEIRDVTRDKKLWRTFFISPANNICFYGECSYYCSTEHALCGKPDQIEGSLAAFLPDLSLAKRKTWRNPWRRSYHKRKKAEWEVDPDYCEEVKQTPPYDSSHRILDVMDMTIFNFLMGNMDRHHYETFEKFGNETFIIHLDNGRGFGKYSHDELSILVPLQQCCRIRKSTYLRLQLLAKEEYKLSLLMAESLRGDQVAPVLYQPHLEALDRRLRVVLKAVRDCVERNGLHSVVDDDLDTEHRAASAR [D451N]
MKMMLVRRFRVLILMVFLVACALHIALDLLPRLERRGARPSGEPGCSCAQPAAEVAAPGWAQVRGRPGEPPAASSAAGDAGWPNKHTLRILQDFSSDPSSNLSSHSLEKLPPAAEPAERALRGRDPGALRPHDPAHRPLLRDPGPRRSESPPGPGGDASLLARLFEHPLYRVAVPPLTEEDVLFNVNSDTRLSPKAAENPDWPHAGAEGAEFLSPGEAAVDSYPNWLKFHIGINRYELYSRHNPAIEALLHDLSSQRITSVAMKSGGTQLKLIMTFQNYGQALFKPMKQTREQETPPDFFYFSDYERHNAEIAAFHLDRILDFRRVPSVAGRMVNMTKEIRDVTRDKKLWRTFFISPANNICFYGECSYYCSTEHALCGKPDQIEGSLAAFLPDLSLAKRKTWRNPWRRSYHKRKKAEWEVDPDYCEEVKQTPPYDSSHRILDVMDMTIFDFLMGNMDRHHYETFEKFGNETFIIHLDNGRGFGKYSHDELSILVPLQQCCRIRKSTYLRLQLLAKEEYKLSLLMAESLRGDQVAPVLYQPHLEALDRRLRVVLKAVRDCVERNGLHSVVDDDLDTEHRAASAR [P328S]
MKMMLVRRFRVLILMVFLVACALHIALDLLPRLERRGARPSGEPGCSCAQPAAEVAAPGWAQVRGRPGEPPAASSAAGDAGWPNKHTLRILQDFSSDPSSNLSSHSLEKLPPAAEPAERALRGRDPGALRPHDPAHRPLLRDPGPRRSESPPGPGGDASLLARLFEHPLYRVAVPPLTEEDVLFNVNSDTRLSPKAAENPDWPHAGAEGAEFLSPGEAAVDSYPNWLKFHIGINRYELYSRHNPAIEALLHDLSSQRITSVAMKSGGTQLKLIMTFQNYGQALFKPMKQTREQETPPDFFYFSDYERHNAEIAAFHLDRILDFRRVPPVAGRMVNMTREIRDVTRDKKLWRTFFISPANNICFYGECSYYCSTEHALCGKPDQIEGSLAAFLPDLSLAKRKTWRNPWRRSYHKRKKAEWEVDPDYCEEVKQTPPYDSSHRILDVMDMTIFDFLMGNMDRHHYETFEKFGNETFIIHLDNGRGFGKYSHDELSILVPLQQCCRIRKSTYLRLQLLAKEEYKLSLLMAESLRGDQVAPVLYQPHLEALDRRLRVVLKAVRDCVERNGLHSVVDDDLDTEHRAASAR [K338R]
MKMMLVRRFRVLILMVFLVACALHIALDLLPRLERRGARPSGEPGCSCAQPAAEVAAPGWAQVRGRPGEPPAASSAAGDAGWPNKHTLRILQDFSSDPSSNLSSHSLEKLPPAAEPAERALRGRDPGALRPHDPAHRPLLRDPGPRRSESPPGPGGDASLLARLFEHPLYRVAVPPLTEEDVLFNVNSDTRLSPKAAENPDWPHAGAEGAEFLSPGEAAVDSYPNWLKFHIGINRYELYSRHNPAIEALLHDLSSQRITSVAMKSGGTQLKLIMTFQNYGQALFKPMKQTREQETPPDFFYFSDYERHNAEIAAFHLDRILDFRRVPPVAGRMVNMTKEIRDVTRDKKLWRTFFISPANNICFYGECSYYCSTEHALCGKPDQIEGSLAAFLPDLSLAKRKTWRNPWRRSYHKRKKAEWEVDPDYCEEVKQTPPYDSSHRILDVMDMTIFDFLMGNMDRHHYETFEKFGNETFIIHLANGRGFGKYSHDELSILVPLQQCCRIRKSTYLRLQLLAKEEYKLSLLMAESLRGDQVAPVLYQPHLEALDRRLRVVLKAVRDCVERNGLHSVVDDDLDTEHRAASAR [D478A]
MKMMLVRRFRVLILMVFLVACALHIALDLLPRLERRGARPSGEPGCSCAQPAAEVAAPGWAQVRGRPGEPPAASSAAGDAGWPNKHTLRILQDFSSDPSSNLSSHSLEKLPPAAEPAERALRGRDPGALRPHDPAHRPLLRDPGPRRSESPPGPGGDASLLARLFEHPLYRVAVPPLTEEDVLFNVNSDTRLSPKAAENPDWPHAGAEGAEFLSPGEAAVDSYPNWLKFHIGINRYELYSRHNPAIEALLHDLSSQRITSVAMKSGGTQLKLIMTFQNYGQALFKPMKQTREQETPPDFFYFSDYERHNAEIAAFHLDRILDFRRVPPVAGRMVNMTKEIRDVTRDKKLWRTFFISPANNICFYGECSYYCSTEHALCGKPDQIEGSLAAFLPDLSLAKRKTWRNPWRRSYHKRKKAEWEVDPDYCEEVKQTPPYDSSHRILDVMDMTIFDFLMGNMDRHHYETFEKFGNETFIIHLDNGRGFGKYSHDELSILVPLQQCCRIRKSTYLRLQLLAKEEYKLSLLMAESLRGDQVAPVLYQPHLEALDRWLRVVLKAVRDCVERNGLHSVVDDDLDTEHRAASAR [R549W]
MKMMLVRRFRVLILMVFLVACALHIALDLLPRLERRGARPSGEPGCSCAQPAAEVAAPGWAQVRGRPGEPPAASSAAGDAGWPNKHTLRILQDFSSDPSSNLSSHSLEKLPPAAEPAERALRGRDPGALRPHDPAHRPLLRDPGPRRSESPPGPGGDASLLARLFEHPLYRVAVPPLTEEDVLFNVNSDTRLSPKAAENPDWPHAGAEGAEFLSPGEAAVDSYPNWLKFHIGINRYELYSRHNPAIEALLHDLSSQRNTSVAMKSGGTQLKLIMTFQNYRQALFKPMKQTREQETPPDFFYFSDYERHNAEIAAFHLDRILDFRRVPPVAGRMVNMTKEIRDVTRDKKLWRTFFISPANNICFYGECSYYCSTEHALCGKPDQIEGSLAAFLPDLSLAKRKTWRNPWRRSYHKRKKAEWEVDPDYCEEVKQTPPYDSSHRILDVMDMTIFDFLMGNMDRHHYETFEKFGNETFIIHLDNGRGFGKYSHDELSILVPLQQCCRIRKSTYLRLQLLAKEEYKLSLLMAESLRGDQVAPVLYQPHLEALDRRLRVVLKAVRDCVERNGLHSVVDDDLDTEHRAASAR [I258N;G280R]
